The record followed here is patent US20220064691A1 (ABERA BIOSCIENCE, published 2022).

The target of assay [1] is ssTorA(3×)-MBP-SpT. The assay can be described thus: overview table of covalent ligation to inclusion bodies.
The target in assay [2] is ssTorA(3×)-MBP-SpT. Nature of the assay: covalent coupling to inclusion bodies in PBS, 25 °C 2 h; SDS-PAGE and Coomassie staining.
Method: The mixtures were incubated at 25° C. for 2h. The inclusion bodies were collected through centrifugation and resuspended in PBS.

B1: GFPnb-SpyCatcher (VHH)
VHH: MVQLVESGGALVQPGGSLRLSCAASGFPVNRYSMRWYRQAPGKEREWVAGMSSAGDRSSYEDSVKGRFTISRDDARNTVYLQMNSLKPEDTAVYYCNVNVGFEYWGQGTQVTVSS
notes: also called GFPnb-SpC; GFPNanobody-SpyCatcher
Take B1: in the assay with ssTorA(3×)-MBP-SpT [1], the binding result is on record as “binds”.

B2: GFPnb-SpC EQ (VHH)
VHH: B1 VHH
In the case of B2, the binding result in the assay with ssTorA(3×)-MBP-SpT [2] is recorded as “no binding (tested: 3.2 µM)”.
